Where a chain is given by its changes, count along the chain named. Blank lines part the entries; values can stand above or below the molecule they belong to.
Experiments:
[1] = target: human HHLA2 over-expressed on 300.19 mouse pre-B leukemic cells (human) (UniProt Q9UM44); assay: flow cytometry; TMIGD2-Fc binding to 300.19 HHLA2 cells with 10 ug/mL control IgG, against antigen only
[2] = target: human HHLA2 over-expressed on 300.19 mouse pre-B leukemic cells (human) (UniProt Q9UM44); assay: flow cytometry; 15 ug/ml antibody on 300.19-human HHLA2 cells, PE-conjugated anti-human secondary antibody
[3] = target: T1, biotinylated human HHLA2-Fc (human, UniProt Q9UM44 23-344, limits assumed, biotinylated (sites not given)); assay: flow cytometry blocking assay; HHLA2-Fc binding to 300.19 KIR3DL3 cells with 10 ug/mL control IgG, against antigen only
T1 construct: It may be the same protein as m8 with biotin added; not shown: Fc part
T1 sequence (looked up): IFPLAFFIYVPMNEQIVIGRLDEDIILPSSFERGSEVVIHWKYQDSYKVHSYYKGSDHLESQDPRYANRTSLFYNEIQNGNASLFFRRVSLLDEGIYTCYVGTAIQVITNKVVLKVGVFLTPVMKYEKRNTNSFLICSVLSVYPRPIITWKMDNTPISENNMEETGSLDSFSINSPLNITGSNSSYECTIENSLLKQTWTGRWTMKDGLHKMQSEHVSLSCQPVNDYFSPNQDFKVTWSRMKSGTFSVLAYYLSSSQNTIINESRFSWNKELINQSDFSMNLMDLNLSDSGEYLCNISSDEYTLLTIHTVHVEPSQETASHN

[4] = target: T1, biotinylated human HHLA2-Fc; assay: flow cytometry blocking assay; 10 ug/mL control IgG with 4 ug/mL biotinylated human HHLA2-Fc, added to 300.19 KIR3DL3 cells
[5] = target: human HHLA2 over-expressed on 300.19 mouse pre-B leukemic cells (human) (UniProt Q9UM44); assay: flow cytometry; 10 ug/mL control IgG with 4 ug/mL biotinylated human TMIGD2-Fc, added to 300.19 HHLA2 cells
[6] = target: T1, biotinylated human HHLA2-Fc; assay: flow cytometry blocking assay; HHLA2-Fc binding to 300.19 KIR3DL3 cells with 10 ug/mL IgG, against antigen only
Protocol: The ability of the anti-HHLA2 antibodies to block binding of HHLA2 to KIR3DL3 and enhance binding of HHLA2 to TMIGD2 was investigated. […] Alexa Fluor 633 conjugated streptavidin was added as a secondary detection reagent.

[7] = target: human HHLA2 over-expressed on 300.19 mouse pre-B leukemic cells (human) (UniProt Q9UM44); assay: flow cytometry; TMIGD2-Fc binding to 300.19 HHLA2 cells with 10 ug/mL IgG, against antigen only; binding is enhanced
[8] = target: human HHLA2 over-expressed on 300.19 mouse pre-B leukemic cells (human) (UniProt Q9UM44); assay: flow cytometry; 10 ug/mL IgG with 4 ug/mL biotinylated human TMIGD2-Fc, added to 300.19 HHLA2 cells; streptavidin-Alexa Fluor 633; binding is enhanced
recombinant HHLA2-Fc = target: T2, recombinant HHLA2-Fc (UniProt Q9UM44 23-344, limits assumed); assay: BLI (Octet, ForteBio); IgG captured on AHC sensor, 100 nM HHLA2-Fc in solution; avid
T2 construct: Antigen in solution in the Octet assay; also called HHLA2-Fc antigen; not shown: Fc part
T2 sequence (looked up): T1 sequence (looked up)
Text: The avid affinity of the anti-HHLA2 antibodies for recombinant HHLA2-Fc was investigated. The Octet system from ForteBio was used to measure avid affinity of the anti-HHLA2 antibodies for recombinant HHLA2-Fc.

[9] = target: human HHLA2 over-expressed on 300.19 mouse pre-B leukemic cells (human) (UniProt Q9UM44); assay: flow cytometry on 300.19 cells over-expressing human HHLA2, antibody titration, gMFI (aHu-APC)
Target sequence in this assay (Q9UM44 23-414): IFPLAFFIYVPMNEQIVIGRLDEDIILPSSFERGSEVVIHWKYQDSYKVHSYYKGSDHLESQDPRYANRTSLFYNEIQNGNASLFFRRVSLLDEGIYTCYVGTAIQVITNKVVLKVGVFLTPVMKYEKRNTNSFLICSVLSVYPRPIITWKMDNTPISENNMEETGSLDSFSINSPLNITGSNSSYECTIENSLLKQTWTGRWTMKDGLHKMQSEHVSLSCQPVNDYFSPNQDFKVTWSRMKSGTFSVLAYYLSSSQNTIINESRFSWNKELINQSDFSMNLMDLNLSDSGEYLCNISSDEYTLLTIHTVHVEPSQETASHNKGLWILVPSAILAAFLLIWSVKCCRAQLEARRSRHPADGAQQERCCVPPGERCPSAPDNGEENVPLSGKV

[10] = target: T1, biotinylated human HHLA2-Fc; assay: flow cytometry blocking assay, antibody titration: binding of human HHLA2-Fc to 300.19 cells over-expressing human KIR3DL3 (blocked partner), gMFI (anti-SA-APC)
recombinant HHLA2-His = target: T3, recombinant HHLA2-His (UniProt Q9UM44 23-344, limits assumed); assay: SPR (Biacore, Cytiva); antibody captured on CM5 chip, HHLA2-His as analyte; monovalent
T3 construct: Analyte in the Biacore assay; also called HHLA2-His analyte; not shown: His tag
T3 sequence (looked up): T1 sequence (looked up)
Protocol: Monovalent affinity was determined by capturing each antibody on an CM5 chip, followed by various concentrations of the HHLA2-His analyte.

[11] = target: human HHLA2 over-expressed on 300.19 mouse pre-B leukemic cells (human) (UniProt Q9UM44); assay: flow cytometry, antibody titration: binding of human TMIGD2-Fc (enhanced ligand) to 300.19 cells over-expressing human HHLA2, % TMIGD2-Fc binding normalized to isotype

Antigen Binding MFI Ratio (IgG blocked/antigen only) [1]: 1.6
300.19-human HHLA2 cells FOB (fold over background) (fold over background) [2]: 22
300.19-human HHLA2 cells MFI [2]: 3290 MFI
Antigen Binding MFI Ratio (IgG blocked/antigen only) [3]: 0.9
Human HHLA2-Fc Binding MFI for 300.19 KIR3DL3 cells [4]: 6990 MFI
Human TMIGD2-Fc Binding MFI for 300.19 HHLA2 cells [5]: 943 MFI
Molecule: Isotype control (antibody)

Antigen Binding MFI Ratio (IgG blocked/antigen only) [6]: 0 ratio
300.19-human HHLA2 cells FOB (fold over background) (fold over background) [2]: 394
300.19-human HHLA2 cells MFI [2]: 46900 MFI
Antigen Binding MFI Ratio (IgG blocked/antigen only) [7]: 4.5
Human TMIGD2-Fc Binding MFI for 300.19 HHLA2 cells [8]: 2730 MFI
Kd (recombinant HHLA2-Fc): 1.42 nM
koff (recombinant HHLA2-Fc): 0.000469 s⁻¹
kon (recombinant HHLA2-Fc): 330000 M⁻¹ s⁻¹
B1: Ab-60638 (antibody, human IgG4 S228P, kappa, V domains shown)
VH: QVQLVQSGAEVKKPGASVKVSCKASGYTFTSYAMHWVRQAPGQRLEWMGWINAGTGNTKYSQKFQGRVTITRDTSASTAYMELSSLRSEDTAVYYCARDLPHRGAFDPWGQGTLVTVSS
VL: EIVLTQSPGTLSLSPGERATLSCRASQSVSSDYLAWYQQKPGQAPRLLIYGASSRATGIPDRFSGSGSGTDFTLTISRLEPEDFAVYYCQLYGSAPRTFGGGTKVEIKR
notes: tested as IgG

Antigen Binding MFI Ratio (IgG blocked/antigen only) [6]: 0 ratio
300.19-human HHLA2 cells FOB (fold over background) (fold over background) [2]: 820
300.19-human HHLA2 cells MFI [2]: 115000 MFI
Antigen Binding MFI Ratio (IgG blocked/antigen only) [7]: 3.1
Human TMIGD2-Fc Binding MFI for 300.19 HHLA2 cells [8]: 1860 MFI
Kd (recombinant HHLA2-Fc): 0.971 nM
koff (recombinant HHLA2-Fc): 0.000189 s⁻¹
kon (recombinant HHLA2-Fc): 194000 M⁻¹ s⁻¹
B2: Ab-60665 (antibody, human IgG4 S228P, kappa, V domains shown)
VH: QVQLVQSGAEVKKPGSSVKVSCKASGGTSSNYAISWVRQAPGQGLEWMGGIIPIFGTANYAQKFQGRVTITADESTSTAYMELSSLRSEDTAVYYCARSGTIWHDIWGQGTMVTVSS
VL: EIVLTQSPATLSLSPGERATLSCRASQSVSSYLAWYQQKPGQAPRLLIYDSSNRATGIPARFSGSGSGTDFTLTISSLEPEDFAVYYCQQVVHWPPTFGGGTKVEIKR
notes: tested as IgG

EC50 (read off the curve) [9]: 0.1 µg/mL
IC50 (read off the curve) [10]: ~1 µg/mL
Kd (recombinant HHLA2-His): 0.765 nM
koff (recombinant HHLA2-His): 9.28e-05 s⁻¹
kon (recombinant HHLA2-His): 123000 M⁻¹ s⁻¹
B3: Ab-65890 (antibody, human IgG1, V domains shown)
VH: QVQLVQSGAEVKKPGASVKVSCKASGYTFNSYRMHWVRQAPGQRLEWMGSIPAGTGNTVYSQKFQGRVTITRDTSASTAYMELSSLRSEDTAVYYCARDRGGYYYDSWDDWGQGTLVTVSS
VL: DIQMTQSPSSLSASVGDRVTITCRASQSISSYLNWYQQKPGKAPKLLIYGASSLQSGVPSRFSGSGSGTDFTLTISSLQPEDFATYYCQQVPFEPPTFGGGTKVEIK
notes: tested as IgG

EC50 (read off the curve) [9]: 0.1 µg/mL
IC50 (read off the curve) [10]: ~1 µg/mL
Kd (recombinant HHLA2-His): 11.3 nM
koff (recombinant HHLA2-His): 0.00688 s⁻¹
kon (recombinant HHLA2-His): 609000 M⁻¹ s⁻¹
B4: Ab-65886 (antibody, human IgG1, kappa, V domains shown)
VH: B3 VH with N30E, S31K, R33A, S50F, V59K
VL: DIQMTQSPSSLSASVGDRVTITCRASQSISSYLNWYQQKPGKAPKLLIYGASSLQSGVPSRFSGSGSGTDFTLTISSLQPEDFATYYCQQVAFTPPTFGGGTKVEIKR
notes: tested as IgG

EC50 (read off the curve) [9]: 0.1 µg/mL
IC50 (read off the curve) [10]: ~1 µg/mL
Kd (recombinant HHLA2-His): 16.5 nM
koff (recombinant HHLA2-His): 0.0148 s⁻¹
kon (recombinant HHLA2-His): 900000 M⁻¹ s⁻¹
B5: Ab-65887 (antibody, human IgG1, kappa, V domains shown)
VH: B3 VH with N30E, S31Q, R33A, S50F, V59K, Y104W
VL: B4 VL with A92V
notes: tested as IgG

EC50 (read off the curve) [11]: 0.1 µg/mL
EC50 (read off the curve) [9]: 0.1 µg/mL
IC50 (read off the curve) [10]: ~1 µg/mL
Kd (recombinant HHLA2-His): 0.894 nM
koff (recombinant HHLA2-His): 0.000114 s⁻¹
kon (recombinant HHLA2-His): 128000 M⁻¹ s⁻¹
B6: Ab-65889 (antibody, human IgG1, kappa, V domains shown)
VH: B3 VH with N30A, R33K, S50D, V59H
VL: B4 VL with A92P, T94E
notes: tested as IgG

EC50 (read off the curve) [9]: 0.1 µg/mL
IC50 (read off the curve) [10]: ~1 µg/mL
Kd (recombinant HHLA2-His): 5.82 nM
koff (recombinant HHLA2-His): 0.00205 s⁻¹
kon (recombinant HHLA2-His): 325000 M⁻¹ s⁻¹
B7: Ab-65885 (antibody, human IgG1, kappa, V domains shown)
VH: B3 VH with N30D, R33K, S50Y, V59K
VL: B4 VL
notes: tested as IgG

— patent US20250270323A1 (NEXTPOINT THERAPEUTICS, published 2025)
